How the values were obtained:
[1] = biological target: Human CD3ε/δ (soluble recombinant human CD3) (human) (UniProt P07766); assay: BIACORE surface plasmon resonance, recombinant human CD3 directly immobilized, 1:1 binding fit
[2] = biological target: Human CD3ε/δ (soluble recombinant human CD3) (human) (UniProt P07766); assay: SPR (BIAcore 3000), antigen immobilized on the chip, DART-A injected, 1:1 Langmuir fit, mean of 3 experiments
[3] = biological target: Cynomolgus CD3ε/δ (soluble recombinant cynomolgus monkey CD3) (cynomolgus monkey) (UniProt Q95LI5); assay: as above
[4] = biological target: Cynomolgus CD3ε/δ (soluble recombinant cynomolgus monkey CD3) (cynomolgus monkey) (UniProt Q95LI5); assay: BIACORE surface plasmon resonance, recombinant cynomolgus monkey CD3 directly immobilized, 1:1 binding fit

Chain of Human CD3ε/δ (soluble recombinant human CD3) (human) (P07766 23-126, stated change not applied, chain 1 of 2): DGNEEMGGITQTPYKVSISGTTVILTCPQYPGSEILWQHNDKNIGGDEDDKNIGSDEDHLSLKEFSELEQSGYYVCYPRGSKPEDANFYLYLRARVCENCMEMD
Chain of Human CD3ε/δ (soluble recombinant human CD3) (human) (P04234 22-105, stated change not applied, chain 2 of 2, further chain): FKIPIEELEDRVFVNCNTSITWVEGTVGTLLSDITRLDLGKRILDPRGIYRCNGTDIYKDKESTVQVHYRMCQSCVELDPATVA
Chain of Cynomolgus CD3ε/δ (soluble recombinant cynomolgus monkey CD3) (cynomolgus monkey) (Q95LI5 22-117, stated change not applied, chain 1 of 2): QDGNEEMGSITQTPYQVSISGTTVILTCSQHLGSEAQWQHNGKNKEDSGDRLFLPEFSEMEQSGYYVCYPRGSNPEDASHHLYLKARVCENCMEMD
Chain of Cynomolgus CD3ε/δ (soluble recombinant cynomolgus monkey CD3) (cynomolgus monkey) (Q95LI8 22-105, stated change not applied, chain 2 of 2, further chain): as the sequence (P04234 22-105, stated change not applied, chain 2 of 2, further chain) above, with I5V, N15K, I20V, S32T, D33N, I34N, T64A, S74N, V83L counted along it

Kd [1]: 12.3 nM
Kd [2]: 9 nM
koff [2]: 0.005 s⁻¹
kon [2]: 570000 M⁻¹ s⁻¹
Kd [3]: 9.2 nM
koff [3]: 0.005 s⁻¹
kon [3]: 550000 M⁻¹ s⁻¹
Kd [4]: 9 nM
B1: Sequence-Optimized CD123 × CD3 Bi-Specific Diabody (DART-A) (bispecific antibody)
chain 1: QAVVTQEPSLTVSPGGTVTLTCRSSTGAVTTSNYANWVQQKPGQAPRGLIGGTNKRAPWTPARFSGSLLGGKAALTITGAQAEDEADYYCALWYSNLWVFGGGTKLTVLGGGGSGGGGEVQLVQSGAELKKPGASVKVSCKASGYTFTDYYMKWVRQAPGQGLEWIGDIIPSNGATFYNQKFKGRVTITVDKSTSTAYMELSSLRSEDTAVYYCARSHLLRASWFAYWGQGTLVTVSSGGCGGGEVAALEKEVAALEKEVAALEKEVAALEK
chain 2: DFVMTQSPDSLAVSLGERVTMSCKSSQSLLNSGNQKNYLTWYQQKPGQPPKLLIYWASTRESGVPDRFSGSGSGTDFTLTISSLQAEDVAVYYCQNDYSYPYTFGQGTKLEIKGGGSGGGGEVQLVESGGGLVQPGGSLRLSCAASGFTFSTYAMNWVRQAPGKGLEWVGRIRSKYNNYATYYADSVKDRFTISRDDSKNSLYLQMNSLKTEDTAVYYCVRHGNFGNSYVSWFAYWGQGTLVTVSSGGCGGGKVAALKEKVAALKEKVAALKEKVAALKE

From patent publication US20210047426A1
